Data on one molecule can be found in PMC4148193, “Chromatin Insulator Factors Involved in Long-Range DNA Interactions and Their Role in the Folding of the Drosophila Genome” (PLoS Genetics, 2014).

One may read the Kd as the constant that tells how readily two partners part at equilibrium.

Data set [1] concerns the target T1, CP190 (Drosophila, UniProt Q24478 1-1096).
T1 sequence: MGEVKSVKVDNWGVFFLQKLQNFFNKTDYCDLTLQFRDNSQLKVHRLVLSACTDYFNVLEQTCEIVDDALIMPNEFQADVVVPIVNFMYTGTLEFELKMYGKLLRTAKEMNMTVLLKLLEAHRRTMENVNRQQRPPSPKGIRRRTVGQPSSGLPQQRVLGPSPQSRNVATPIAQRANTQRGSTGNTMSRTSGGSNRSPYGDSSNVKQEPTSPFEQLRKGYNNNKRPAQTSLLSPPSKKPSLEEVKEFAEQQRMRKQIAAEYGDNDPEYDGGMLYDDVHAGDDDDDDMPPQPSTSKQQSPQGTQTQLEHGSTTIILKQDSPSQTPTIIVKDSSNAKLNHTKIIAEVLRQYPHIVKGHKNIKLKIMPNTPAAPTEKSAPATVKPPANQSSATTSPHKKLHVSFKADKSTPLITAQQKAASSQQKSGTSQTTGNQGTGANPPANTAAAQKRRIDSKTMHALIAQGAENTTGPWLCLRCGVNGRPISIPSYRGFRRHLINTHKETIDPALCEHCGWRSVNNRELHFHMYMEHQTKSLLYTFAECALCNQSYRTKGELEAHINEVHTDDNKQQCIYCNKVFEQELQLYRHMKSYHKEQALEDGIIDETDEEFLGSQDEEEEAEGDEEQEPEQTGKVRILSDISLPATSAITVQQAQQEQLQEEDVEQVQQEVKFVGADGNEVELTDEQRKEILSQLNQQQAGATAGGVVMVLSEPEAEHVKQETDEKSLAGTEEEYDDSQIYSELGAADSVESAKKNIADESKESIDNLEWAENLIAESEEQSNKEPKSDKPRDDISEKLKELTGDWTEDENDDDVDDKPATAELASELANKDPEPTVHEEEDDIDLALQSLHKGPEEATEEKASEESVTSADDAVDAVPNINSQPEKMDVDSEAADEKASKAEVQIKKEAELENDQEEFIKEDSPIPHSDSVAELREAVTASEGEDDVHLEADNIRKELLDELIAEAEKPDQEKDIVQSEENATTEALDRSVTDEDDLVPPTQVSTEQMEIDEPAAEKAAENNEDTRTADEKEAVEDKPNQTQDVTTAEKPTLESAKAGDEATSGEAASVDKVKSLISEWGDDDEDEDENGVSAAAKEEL
The data set can be described thus: fluorescence anisotropy; Hill n=2±0.3; 20 uM ZnSO4; FA/FCS: 30 mM Tris/HCl pH 7.5, 100 mM NaCl, 20 uM ZnSO4, 5 mM mercaptoethanol, 0.01 mg/ml BSA, 0.004% Tween20, 2.5 nM DNA; EMSA: 150 mM NaCl, 30 mM Tris/HCl pH. Particulars: protein: recombinant; tags: N-term 6xHis; blunt. Background: Polarisation of emitted light reports the rotation of a fluorescent probe.

The target in data set [2] is T2, BEAF32 (BEAF32B) (Drosophila, UniProt Q94513 1-282).
T2 sequence: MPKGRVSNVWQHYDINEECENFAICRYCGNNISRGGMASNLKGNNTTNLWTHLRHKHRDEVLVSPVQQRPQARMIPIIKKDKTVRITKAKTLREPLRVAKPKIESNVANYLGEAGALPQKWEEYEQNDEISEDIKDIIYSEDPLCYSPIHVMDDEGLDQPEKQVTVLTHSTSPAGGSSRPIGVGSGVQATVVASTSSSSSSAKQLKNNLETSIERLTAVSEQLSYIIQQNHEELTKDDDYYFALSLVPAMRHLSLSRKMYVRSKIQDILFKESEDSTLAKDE
The experiment in a line: fluorescence anisotropy; Hill n=3±0.4; 20 uM ZnSO4; FA/FCS: 30 mM Tris/HCl pH 7.5, 100 mM NaCl, 20 uM ZnSO4, 5 mM mercaptoethanol, 0.01 mg/ml BSA, 0.004% Tween20, 2.5 nM DNA; EMSA: 150 mM NaCl, 30 mM Tris/HCl pH. Particulars: protein: recombinant; tags: N-term MBP; C-term 6xHis; blunt.

Data set [3] deals with T3, BEAF32 (BEAF32B);Chromator (Drosophila;Drosophila, UniProt Q94513;Q86BS3 1-282;1-926, |).
T3 sequence 1: T2 sequence
T3 sequence 2: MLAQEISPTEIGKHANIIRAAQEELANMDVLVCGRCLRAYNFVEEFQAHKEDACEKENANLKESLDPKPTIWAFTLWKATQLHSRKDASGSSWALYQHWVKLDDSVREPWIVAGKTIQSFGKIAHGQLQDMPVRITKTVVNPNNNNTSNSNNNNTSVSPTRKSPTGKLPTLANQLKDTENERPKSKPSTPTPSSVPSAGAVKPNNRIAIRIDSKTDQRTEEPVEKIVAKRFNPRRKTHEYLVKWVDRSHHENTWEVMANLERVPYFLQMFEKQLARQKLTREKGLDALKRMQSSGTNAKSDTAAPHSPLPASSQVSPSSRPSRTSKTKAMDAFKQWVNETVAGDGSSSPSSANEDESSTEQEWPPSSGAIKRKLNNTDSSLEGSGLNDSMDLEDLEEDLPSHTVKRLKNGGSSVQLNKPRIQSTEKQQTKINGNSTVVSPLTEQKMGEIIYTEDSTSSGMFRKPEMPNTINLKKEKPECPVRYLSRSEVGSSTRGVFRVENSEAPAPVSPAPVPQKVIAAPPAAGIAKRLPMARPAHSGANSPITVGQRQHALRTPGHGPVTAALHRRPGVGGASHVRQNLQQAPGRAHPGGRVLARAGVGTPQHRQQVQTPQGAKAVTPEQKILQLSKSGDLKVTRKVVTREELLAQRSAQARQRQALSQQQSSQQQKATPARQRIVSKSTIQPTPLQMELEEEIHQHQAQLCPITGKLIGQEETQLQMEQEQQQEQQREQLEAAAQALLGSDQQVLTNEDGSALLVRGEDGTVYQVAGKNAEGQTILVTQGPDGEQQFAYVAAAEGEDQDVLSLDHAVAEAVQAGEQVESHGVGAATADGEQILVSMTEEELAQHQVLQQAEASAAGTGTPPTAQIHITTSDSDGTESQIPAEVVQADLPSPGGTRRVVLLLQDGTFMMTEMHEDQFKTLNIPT
The data set can be described thus: FCS/PIE-FCCS; 800 nM BEAF32, 100 nM Chromator; cross-correlation 13±4%, 47±14% of complexes bridged; FA/FCS: 30 mM Tris/HCl pH 7.5, 100 mM NaCl, 20 uM ZnSO4, 5 mM mercaptoethanol, 0.01 mg/ml BSA, 0.004% Tween20, 2.5 nM DNA; EMSA: 150 mM NaCl, 30 mM Tris/HCl pH. The note with it: protein: recombinant;recombinant; tags: N-term MBP; C-term 6xHis;N-term 6xHis; blunt.

B1: DNAS (dsDNA)
DNA 1: AGAAGTCAGCGCGATAGCATCGATATTTTCGTGACACGCTTGTCATCCGATAGGTAGT
DNA 2: ACTACCTATCGGATGACAAGCGTGTCACGAAAATATCGATGCTATCGCGCTGACTTCT
For B1, the Kd in data set [1] is 109 ± 5 nM; in data set [2] it was 68 ± 5 nM. Moreover, the binding result in data set [3] is reported as “binds”.
